Assay results taken from patent US20110229922A1, “SCREENING ASSAYS FOR THE IDENTIFICATION OF BACE2 INHIBITORS” (priority 2008, published 2011).
No end group written: not given here. MR121 = fluorophore label at the N-terminus

The substances below were run on Min6 cells (assay: Proliferation assay in Min6 cells (EdU, confocal microscopy)). Conditions: 48 hours, p<10-6, FIG. 5a.
Type: cell-based
Protocol: 50′000 MING B1 cells per well were seeded in a 96-well plate using standard trypsinization method. The following day, serum-supplemented complete medium (described earlier) was removed and replaced by serum-free and low glucose medium (Invitrogen) supplemented with the compound as follows: 10 nM exendin-4 (Sigma-Aldrich) as a positive control was added to the cells every 12 h, to avoid degradation. […] As an absolute positive control cells were also grown in FCS supplemented standard media. Cells were incubated for 48 hours.
After this incubation, medium was discarded and replaced by the serum-supplemented medium containing 10 nM EdU (Invitrogen) and incubated for 1 h at 37° C. […]
Spinning-disc confocal fluorescence microscopy of the 96-well plate has been performed on the high-throughput automated imaging system Opera™ QEHS (PerkinElmer Cellular Technologies, Hamburg, Germany). […] In each well, typically 12 pairs of scanning images were recorded through a UAPO 20×NA 0.7 water immersion objective lens (Olympus) and optimized filter sets by 2 independent high quantum-efficiency 12 bit CCD cameras (1.3 mega pixels monochrome). […]
Confocal micrographs were analyzed using the proprietary software environment of PerkinElmer's Opera (Acapella 1.8, PerkinElmer Cellular Technologies, Hamburg, Germany). […]

Substance | proliferation rate compared to basal proliferation rate of starved cells
exendin-4 | highly significant proliferation increase

What follows are substances tested against T1, BACE2 (Homo sapiens, UniProt Q9Y5Z0) (assay: FRET peptide cleavage assay, BACE2 activity on peptide substrates). Conditions: pH 4.5, substrate 5 μM, FIG. 7 and FIG. 9.
T1 construct: made in house; host or cells: E. coli BL21(DE3)
T1 sequence (Q9Y5Z0 20-465): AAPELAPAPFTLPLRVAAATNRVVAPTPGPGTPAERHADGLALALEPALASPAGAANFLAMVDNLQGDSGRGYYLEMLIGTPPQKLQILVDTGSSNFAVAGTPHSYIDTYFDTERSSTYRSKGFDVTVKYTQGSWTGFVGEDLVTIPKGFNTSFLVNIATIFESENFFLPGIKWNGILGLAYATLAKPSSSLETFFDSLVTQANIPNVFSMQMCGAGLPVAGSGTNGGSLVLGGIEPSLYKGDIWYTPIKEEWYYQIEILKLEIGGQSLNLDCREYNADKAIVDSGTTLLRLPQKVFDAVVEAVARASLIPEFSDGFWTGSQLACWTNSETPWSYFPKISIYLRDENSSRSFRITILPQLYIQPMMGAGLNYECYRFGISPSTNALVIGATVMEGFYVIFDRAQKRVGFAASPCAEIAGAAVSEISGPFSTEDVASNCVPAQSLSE
Type: biochemical
Protocol: The FRET assay was performed essentially as described in Grüninger-Leitch et al. [Substrate and inhibitor profile of BACE (beta-secretase) and comparison with other mammalian aspartic proteases. Journal of Biological Chemistry (2002) 277(7) 4687-93]. In summary, a peptide is designed that is cleaved by the protease. The peptide is labelled with dabsyl at the N terminus and Lucifer Yellow at the C-terminus, such that for an intact peptide the Lucifer Yellow fluorescence is quenched by the dabsyl. When the peptide is cut by BACE2, the quenching is removed and a fluorescent signal is generated.
The assay was performed as described in Grueninger et al. 2002 at pH 4.5 using a substrate concentration of 5 μM. All FRET-peptides had the format described.
(§1) BACE2 enzyme ectodomain was prepared as described in Ostermann et al [“Crystal Structure of Human BACE2 in Complex with a Hydroxyethylamine Transition-state Inhibitor.” Journal of Molecular Biology 355 (2006) 249-261].

Substance | BACE2 activity against FRET peptide substrate
dabsyl—QTLEFLKIPS—LucY: FRET peptide based on the TMEM27 sequence, dabsyl at N terminus and Lucifer Yellow at C-terminus (dabsyl-QTLEFLKIPS-{Lucifer Yellow}) | high activity
dabsyl-NSLEFLGIQP-lucifer yellow: FRET peptide based on the sequence of ACE2 at the site equivalent to the BACE2 cleavage site in TMEM27 (dabsyl-NSLEFLGIQP-{Lucifer Yellow}) | efficiency greater than that of the TMEM27 substrate

The substances below were run against BACE1 (Homo sapiens, UniProt P56817) (assay: FRET peptide cleavage assay, BACE1 activity on peptide substrates). Conditions: pH 4.5, substrate 5 μM, FIG. 7.
Type: biochemical

Sequence of BACE1 (P56817 46-501, species assumed): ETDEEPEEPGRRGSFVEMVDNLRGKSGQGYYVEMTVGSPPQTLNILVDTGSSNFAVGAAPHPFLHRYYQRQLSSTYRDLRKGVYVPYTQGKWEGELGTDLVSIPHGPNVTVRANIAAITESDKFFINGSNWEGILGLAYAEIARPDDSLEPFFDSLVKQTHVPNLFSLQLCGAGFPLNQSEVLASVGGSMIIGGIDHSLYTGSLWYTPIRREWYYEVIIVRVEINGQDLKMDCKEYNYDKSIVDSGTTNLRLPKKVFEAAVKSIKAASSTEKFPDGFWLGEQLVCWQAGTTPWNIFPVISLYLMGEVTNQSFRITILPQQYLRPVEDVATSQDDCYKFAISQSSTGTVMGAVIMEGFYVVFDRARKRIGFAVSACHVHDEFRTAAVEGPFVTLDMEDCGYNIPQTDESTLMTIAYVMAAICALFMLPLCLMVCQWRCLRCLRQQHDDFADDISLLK

Substance | BACE1 activity against FRET peptide substrate
dabsyl—QTLEFLKIPS—LucY: FRET peptide based on the TMEM27 sequence, dabsyl at N terminus and Lucifer Yellow at C-terminus (dabsyl-QTLEFLKIPS-{Lucifer Yellow}) | insignificant activity

The substances below were run against T1, BACE2 (assay: MR121-peptide cleavage assay). Conditions: substrate peptides labelled with MR121 at N-terminus and tryptophan at C-terminus.
Type: biochemical
Design: scale not given here
Protocol: In a related assay, a peptide was devised with the same sequence, which was labeled at the N-terminus with MR121 and at the C-terminus with Tryptophan.
Substrate peptides derived from TMEM27 with activity in the MR121-peptide cleavage assay.
as §1

Substance | Relative activity
C QELEFLKI W: Substrate peptide derived from TMEM27 for MR121-peptide cleavage assay (MR121-CQELEFLKIW) | 100
C QTLEF W: Substrate peptide derived from TMEM27 for MR121-peptide cleavage assay (MR121-CQTLEFW) | 21
C TLEFLKI W: Substrate peptide derived from TMEM27 for MR121-peptide cleavage assay (MR121-CTLEFLKIW) | 28
C LEFLKI W: Substrate peptide derived from TMEM27 for MR121-peptide cleavage assay (MR121-CLEFLKIW) | 24
C QTLEFLKI W: Substrate peptide derived from TMEM27 for MR121-peptide cleavage assay (MR121-CQTLEFLKIW) | 96
C QTLEFLKIP W: Substrate peptide derived from TMEM27 for MR121-peptide cleavage assay (MR121-CQTLEFLKIPW) | 75
C QTLEFLKIPS W: Substrate peptide derived from TMEM27 for MR121-peptide cleavage assay (MR121-CQTLEFLKIPSW) | 91
C QTLEFLK W: Substrate peptide derived from TMEM27 for MR121-peptide cleavage assay (MR121-CQTLEFLKW) | 62
C QTLEFL W: Substrate peptide derived from TMEM27 for MR121-peptide cleavage assay (MR121-CQTLEFLW) | 32
